The text below walks through data of WO2011104307A2.

This assay concerns the target host cell proteins. In words: microtiter plate column chromatography, Bradford assay; fraction of injected protein bound.

“rProtein A Sepharose FF (from UniProt P38507 37-327)” yielded a Bound of 0%.
